T1: Baboon EL-C2 tag (baboon, UniProt Q9Y5X9 21-500 (human entry), limits assumed)
T1 chain: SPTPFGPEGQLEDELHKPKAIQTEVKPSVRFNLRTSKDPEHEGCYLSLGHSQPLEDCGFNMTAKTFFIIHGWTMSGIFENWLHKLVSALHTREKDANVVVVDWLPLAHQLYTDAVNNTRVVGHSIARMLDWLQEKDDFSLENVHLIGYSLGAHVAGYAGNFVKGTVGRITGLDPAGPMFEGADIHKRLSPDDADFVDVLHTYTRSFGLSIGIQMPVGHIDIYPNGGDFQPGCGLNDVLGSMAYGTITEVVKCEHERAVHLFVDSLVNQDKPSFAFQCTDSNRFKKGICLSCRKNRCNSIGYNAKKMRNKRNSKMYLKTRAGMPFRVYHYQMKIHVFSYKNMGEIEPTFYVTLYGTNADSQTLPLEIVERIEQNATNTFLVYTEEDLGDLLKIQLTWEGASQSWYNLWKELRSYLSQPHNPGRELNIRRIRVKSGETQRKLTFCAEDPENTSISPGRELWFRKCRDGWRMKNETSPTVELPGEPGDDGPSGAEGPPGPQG

T2: cynomolgus monkey EL-C2 tag (cynomolgus monkey, UniProt Q9Y5X9 21-500 (human entry), limits assumed)
T2 chain: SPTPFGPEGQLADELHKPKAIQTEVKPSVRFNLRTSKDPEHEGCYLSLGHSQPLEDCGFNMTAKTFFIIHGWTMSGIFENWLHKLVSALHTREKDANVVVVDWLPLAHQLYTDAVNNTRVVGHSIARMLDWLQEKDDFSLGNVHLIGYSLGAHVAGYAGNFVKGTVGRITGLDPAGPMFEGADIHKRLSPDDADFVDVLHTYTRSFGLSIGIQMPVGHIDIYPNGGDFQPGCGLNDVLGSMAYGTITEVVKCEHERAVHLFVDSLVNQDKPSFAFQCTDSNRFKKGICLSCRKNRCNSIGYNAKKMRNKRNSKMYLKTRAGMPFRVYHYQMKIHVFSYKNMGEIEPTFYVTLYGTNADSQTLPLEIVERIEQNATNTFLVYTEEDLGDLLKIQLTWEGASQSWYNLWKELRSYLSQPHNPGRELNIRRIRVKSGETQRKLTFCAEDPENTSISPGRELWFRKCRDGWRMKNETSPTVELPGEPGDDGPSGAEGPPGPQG

T3: human EL[331-459]-mouse EL-C2 tag (human/mouse chimera, UniProt Q9WVG5 21-500 (mouse entry))
T3 chain: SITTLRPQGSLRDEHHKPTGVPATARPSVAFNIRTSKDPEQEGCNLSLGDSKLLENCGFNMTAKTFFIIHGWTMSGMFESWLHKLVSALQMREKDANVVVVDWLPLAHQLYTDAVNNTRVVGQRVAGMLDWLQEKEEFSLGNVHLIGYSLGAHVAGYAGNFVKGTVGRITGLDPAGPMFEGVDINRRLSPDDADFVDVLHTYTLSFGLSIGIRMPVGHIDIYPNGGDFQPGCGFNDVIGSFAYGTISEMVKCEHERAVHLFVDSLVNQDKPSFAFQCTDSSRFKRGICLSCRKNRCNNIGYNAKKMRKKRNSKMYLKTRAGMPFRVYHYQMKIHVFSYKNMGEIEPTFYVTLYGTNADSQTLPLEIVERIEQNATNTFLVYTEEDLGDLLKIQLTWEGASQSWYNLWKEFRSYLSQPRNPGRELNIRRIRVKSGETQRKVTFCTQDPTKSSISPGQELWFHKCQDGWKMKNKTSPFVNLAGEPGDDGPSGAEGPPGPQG

T4: rabbit EL-C2 tag (rabbit)
T4 chain: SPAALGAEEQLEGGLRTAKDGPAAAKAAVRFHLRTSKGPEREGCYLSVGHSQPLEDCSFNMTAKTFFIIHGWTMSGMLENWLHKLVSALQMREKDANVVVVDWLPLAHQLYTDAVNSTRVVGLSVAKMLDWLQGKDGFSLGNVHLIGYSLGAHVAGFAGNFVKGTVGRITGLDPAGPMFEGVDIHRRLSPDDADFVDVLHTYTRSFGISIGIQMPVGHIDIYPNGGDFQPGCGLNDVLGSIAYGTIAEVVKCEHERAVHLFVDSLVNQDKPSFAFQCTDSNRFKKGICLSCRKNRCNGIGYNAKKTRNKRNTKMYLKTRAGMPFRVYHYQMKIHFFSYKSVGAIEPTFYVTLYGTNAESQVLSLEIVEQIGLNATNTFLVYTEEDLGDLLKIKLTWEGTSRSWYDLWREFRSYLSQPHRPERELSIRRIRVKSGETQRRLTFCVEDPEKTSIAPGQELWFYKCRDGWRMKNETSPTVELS


How the values were obtained:
[1] = target: T1, Baboon EL-C2 tag; assay: cell-based or functional assay
[2] = target: T2, cynomolgus monkey EL-C2 tag; assay: cell-based or functional assay
[3] = target: T3, human EL[331-459]-mouse EL-C2 tag; assay: cell-based or functional assay
[4] = target: T4, rabbit EL-C2 tag; assay: cell-based or functional assay
[5] = target: T1, Baboon EL-C2 tag; assay: Biacore SPR; EL heparin extract captured by anti-C2-tag antibody on CM5, antibody as analyte, bivalent fit
Experimental: (§1) The binding affinities of anti-EL antibodies were measured using Biacore. Anti-C2-tag antibody was immobilized on a sensor chip CM5 (GE HealthCare) using amine-coupling and baboon EL heparin extract or cynomolgus monkey heparin extract diluted with HBS-P (GE Healthcare) was added and EL were captured on the sensor chip. Then anti-EL antibodies diluted with HBS-P were added and the binding affinities were calculated by bivalent fitting of BIAevaluation software (FIG. 9A-G).

[6] = target: T2, cynomolgus monkey EL-C2 tag; assay: as above
Experimental: as §1

[7] = target: T1, Baboon EL-C2 tag; assay: Biacore SPR; EL captured by anti-C2-tag antibody, antibody as analyte, bivalent fit; column head prints nM, kd/ka gives M
Experimental: as §1

[8] = target: T2, cynomolgus monkey EL-C2 tag; assay: as above
Experimental: as §1

[9] = target: T2, cynomolgus monkey EL-C2 tag; assay: ELISA-type titration, A450 against antibody concentration; protocol not described in the text

Row | Neutralizing activity_IC50 [1] | Neutralizing activity_IC50 [2] | Neutralizing activity_IC50 [3] | Neutralizing activity_IC50 [4] | koff [5] | kon [5] | koff [6] | kon [6] | Kd [7] | Kd [8] | EC50 (read off the curve) [9] | Binder
1 | 4.6 nM | 4.7 nM | 5.3 nM | 37 nM | 0.00056 s⁻¹ | 140000 M⁻¹ s⁻¹ | 0.00033 s⁻¹ | 250000 M⁻¹ s⁻¹ | 4 nM | 1.3 nM | – | 47B2 antibody (antibody, IgG2a, V domains shown) VH: QVALKESGPGILQPSQTLSLTCSFSGFSLSTSGMGVGWIRQPSGKGLEWLAHIWWHGNKYYSTGLKSRLTISKDTSNNQVFLKIASVDTADTATYYCARISAGYPLDYWGQGTSVTVSS VL: DIQMTQSPSSLSASLGGKVTITCKASQDINKYIVWYQHKPGKGPRLLIHYTSTLQPGFPSRFSGSGSGRDYSLSITNLEPEDIATYYCLQYDNLLWTFGGGTKLEIK
2 | 7.1 nM | 6.2 nM | 15 nM | 201 nM | 0.00021 s⁻¹ | 350000 M⁻¹ s⁻¹ | 0.00018 s⁻¹ | 880000 M⁻¹ s⁻¹ | 0.6 nM | 0.2 nM | ~7 ng/mL | 12B10 antibody (antibody, IgG2a, V domains shown) VH: QVTLKESGPGILKPSQTLSLTCSFSGFSLSTSGMGVGWIRQPSGKGLEWLAHIWWNDEKYYNPSLKSQLTISKDTSRNQVFLKITSVDTADTATYYCARSYDGSPFPSWGQGTLVTVSA VL: DIQMTQSPSSLSASLGGKVTITCKASQDINKYIAWFQHKPGKGPRLLMAYPFTLQPGIPSRFSGNGSGRDYSFSISNLEPEDIATYYCLQYDNLLWTFGGGTRLEIK
